Reference: US20230407373A1 (priority 2020, published 2023)

B1: DDX1: host protein, UniProt Q92499 (protein, UniProt Q92499 1-740, looked up)
ATP-dependent RNA helicase …: MAAFSEMGVMPEIAQAVEEMDWLLPTDIQAESIPLILGGGDVLMAAETGSGKTGAFSIPVIQIVYETLKDQQEGKKGKTTIKTGASVLNKWQMNPYDRGSAFAIGSDGLCCQSREVKEWHGCRATKGLMKGKHYYEVSCHDQGLCRVGWSTMQASLDLGTDKFGFGFGGTGKKSHNKQFDNYGEEFTMHDTIGCYLDIDKGHVKFSKNGKDLGLAFEIPPHMKNQALFPACVLKNAELKFNFGEEEFKFPPKDGFVALSKAPDGYIVKSQHSGNAQVTQTKFLPNAPKALIVEPSRELAEQTLNNIKQFKKYIDNPKLRELLIIGGVAARDQLSVLENGVDIVVGTPGRLDDLVSTGKLNLSQVRFLVLDEADGLLSQGYSDFINRMHNQIPQVTSDGKRLQVIVCSATLHSFDVKKLSEKIMHFPTWVDLKGEDSVPDTVHHVVVPVNPKTDRLWERLGKSHIRTDDVHAKDNTRPGANSPEMWSEAIKILKGEYAVRAIKEHKMDQAIIFCRTKIDCDNLEQYFIQQGGGPDKKGHQFSCVCLHGDRKPHERKQNLERFKKGDVRFLICTDVAARGIDIHGVPYVINVTLPDEKQNYVHRIGRVGRAERMGLAISLVATEKEKVWYHVCSSRGKGCYNTRLKEDGGCTIWYNEMQLLSEIEEHLNCTISQVEPDIKVPVDEFDGKVTYGQKRAAGGGSYKGHVDILAPTVQELAALEKEAQTSFLHLGYLPNQLFRTF
B2: HNRNPH2: host protein, UniProt P55795 (protein, UniProt P55795 1-449, looked up)
Heterogeneous nuclear …: MMLSTEGREGFVVKVRGLPWSCSADEVMRFFSDCKIQNGTSGIRFIYTREGRPSGEAFVELESEEEVKLALKKDRETMGHRYVEVFKSNSVEMDWVLKHTGPNSPDTANDGFVRLRGLPFGCSKEEIVQFFSGLEIVPNGMTLPVDFQGRSTGEAFVQFASQEIAEKALKKHKERIGHRYIEIFKSSRAEVRTHYDPPRKLMAMQRPGPYDRPGAGRGYNSIGRGAGFERMRRGAYGGGYGGYDDYGGYNDGYGFGSDRFGRDLNYCFSGMSDHRYGDGGSSFQSTTGHCVHMRGLPYRATENDIYNFFSPLNPMRVHIEIGPDGRVTGEADVEFATHEDAVAAMAKDKANMQHRYVELFLNSTAGTSGGAYDHSYVELFLNSTAGASGGAYGSQMMGGMGLSNQSSYGGPASQQLSGGYGGGYGGQSSMSGYDQVLQENSSDYQSNLA
B3: XRN2: host protein, UniProt Q9H0D6 (protein, UniProt Q9H0D6 1-950, looked up)
5'-3' exoribonuclease 2: MGVPAFFRWLSRKYPSIIVNCVEEKPKECNGVKIPVDASKPNPNDVEFDNLYLDMNGIIHPCTHPEDKPAPKNEDEMMVAIFEYIDRLFSIVRPRRLLYMAIDGVAPRAKMNQQRSRRFRASKEGMEAAVEKQRVREEILAKGGFLPPEEIKERFDSNCITPGTEFMDNLAKCLRYYIADRLNNDPGWKNLTVILSDASAPGEGEHKIMDYIRRQRAQPNHDPNTHHCLCGADADLIMLGLATHEPNFTIIREEFKPNKPKPCGLCNQFGHEVKDCEGLPREKKGKHDELADSLPCAEGEFIFLRLNVLREYLERELTMASLPFTFDVERSIDDWVFMCFFVGNDFLPHLPSLEIRENAIDRLVNIYKNVVHKTGGYLTESGYVNLQRVQMIMLAVGEVEDSIFKKRKDDEDSFRRRQKEKRKRMKRDQPAFTPSGILTPHALGSRNSPGSQVASNPRQAAYEMRMQNNSSPSISPNTSFTSDGSPSPLGGIKRKAEDSDSEPEPEDNVRLWEAGWKQRYYKNKFDVDAADEKFRRKVVQSYVEGLCWVLRYYYQGCASWKWYYPFHYAPFASDFEGIADMPSDFEKGTKPFKPLEQLMGVFPAASGNFLPPSWRKLMSDPDSSIIDFYPEDFAIDLNGKKYAWQGVALLPFVDERRLRAALEEVYPDLTPEETRRNSLGGDVLFVGKHHPLHDFILELYQTGSTEPVEVPPELCHGIQGKFSLDEEAILPDQIVCSPVPMLRDLTQNTVVSINFKDPQFAEDYIFKAVMLPGARKPAAVLKPSDWEKSSNGRQWKPQLGFNRDRRPVHLDQAAFRTLGHVMPRGSGTGIYSNAAPPPVTYQGNLYRPLLRGQAQIPKLMSNMRPQDSWRGPPPLFQQQRFDRGVGAEPLLPWNRMLQTQNAAFQPNQYQMLAGPGGYPPRRDDRGGRQGYPREGRKYPLPPPSGRYNWN
B4: UPF1: host protein, UniProt Q92900 (protein, UniProt Q92900 1-1129, looked up)
Regulator of nonsense …: MSVEAYGPSSQTLTFLDTEEAELLGADTQGSEFEFTDFTLPSQTQTPPGGPGGPGGGGAGGPGGAGAGAAAGQLDAQVGPEGILQNGAVDDSVAKTSQLLAELNFEEDEEDTYYTKDLPIHACSYCGIHDPACVVYCNTSKKWFCNGRGNTSGSHIVNHLVRAKCKEVTLHKDGPLGETVLECYNCGCRNVFLLGFIPAKADSVVVLLCRQPCASQSSLKDINWDSSQWQPLIQDRCFLSWLVKIPSEQEQLRARQITAQQINKLEELWKENPSATLEDLEKPGVDEEPQHVLLRYEDAYQYQNIFGPLVKLEADYDKKLKESQTQDNITVRWDLGLNKKRIAYFTLPKTDSGNEDLVIIWLRDMRLMQGDEICLRYKGDLAPLWKGIGHVIKVPDNYGDEIAIELRSSVGAPVEVTHNFQVDFVWKSTSFDRMQSALKTFAVDETSVSGYIYHKLLGHEVEDVIIKCQLPKRFTAQGLPDLNHSQVYAVKTVLQRPLSLIQGPPGTGKTVTSATIVYHLARQGNGPVLVCAPSNIAVDQLTEKIHQTGLKVVRLCAKSREAIDSPVSFLALHNQIRNMDSMPELQKLQQLKDETGELSSADEKRYRALKRTAERELLMNADVICCTCVGAGDPRLAKMQFRSILIDESTQATEPECMVPVVLGAKQLILVGDHCQLGPVVMCKKAAKAGLSQSLFERLVVLGIRPIRLQVQYRMHPALSAFPSNIFYEGSLQNGVTAADRVKKGFDFQWPQPDKPMFFYVTQGQEEIASSGTSYLNRTEAANVEKITTKLLKAGAKPDQIGIITPYEGQRSYLVQYMQFSGSLHTKLYQEVEIASVDAFQGREKDFIILSCVRANEHQGIGFLNDPRRLNVALTRARYGVIIVGNPKALSKQPLWNHLLNYYKEQKVLVEGPLNNLRESLMQFSKPRKLVNTINPGARFMTTAMYDAREAIIPGSVYDRSSQGRPSSMYFQTHDQIGMISAGPSHVAAMNIPIPFNLVMPPMPPPGYFGQANGPAAGRGTPKGKTGRGGRQKNRFGLPGPSQTNLPNSQASQDVASQPFSQGALTQGYISMSQPSQMSQPGLSQPELSQDSYLGDEFKSQIDVALSQDSTYQGERAYQHGGVTGLSQY
B5: SRSF10 (protein, UniProt O75494 1-262, looked up)
Serine/arginine-rich splicing …: MSRYLRPPNTSLFVRNVADDTRSEDLRREFGRYGPIVDVYVPLDFYTRRPRGFAYVQFEDVRDAEDALHNLDRKWICGRQIEIQFAQGDRKTPNQMKAKEGRNVYSSSRYDDYDRYRRSRSRSYERRRSRSRSFDYNYRRSYSPRNSRPTGRPRRSRSHSDNDRFKHRNRSFSRSKSNSRSRSKSQPKKEMKAKSRSRSASHTKTRGTSKTDSKTHYKSGSRYEKESRKKEPPRSKSQSRSQSRSRSKSRSRSWTSPKSSGH
B6: LRRC59 (protein, UniProt Q96AG4 1-307, looked up)
Leucine-rich …: MTKAGSKGGNLRDKLDGNELDLSLSDLNEVPVKELAALPKATILDLSCNKLTTLPSDFCGLTHLVKLDLSKNKLQQLPADFGRLVNLQHLDLLNNKLVTLPVSFAQLKNLKWLDLKDNPLDPVLAKVAGDCLDEKQCKQCANKVLQHMKAVQADQERERQRRLEVEREAEKKREAKQRAKEAQERELRKREKAEEKERRRKEYDALKAAKREQEKKPKKEANQAPKSKSGSRPRKPPPRKHTRSWAVLKLLLLLLLFGVAGGLVACRVTELQQQPLCTSVNTIYDNAVQGLRRHEILQWVLQTDSQQ
B7: TXN (protein, UniProt P10599 2-105, looked up)
Thioredoxin: VKQIESKTAFQEALDAAGDKLVVVDFSATWCGPCKMIKPFFHSLSEKYSNVIFLEVDVDDCQDVASECEVKCMPTFQFFKKGQKVGEFSGANKEKLEATINELV

Each molecule was assayed on gRNA of HCoV-OC43. Conditions: type g_36_m; HCoV-OC43-infected HCT-8 cells, 36 hpi, Probe I.
Assay type: binding

Molecule	target (spectral count)
B1	12
B2	12
B3	8

Same assay, conditions: type g_36_m; uninfected-probe control, 36 hpi, Probe I

Molecule	background (spectral count)
B1	1
B2	1
B3	1

Same assay, conditions: type n_48_v: 48 hours post-infection, infected cells, OC43 Probe I; unweighted spectral count

Molecule	target (spectral count, OC43 Probe I RNP capture)
B4	13
B1	12
B2	10
B5	9
B6	9
B3	9
B7	8

Same assay, conditions: type n_48_v: 48 hours post-infection, no-probe control on infected cells

Molecule	background (spectral count, no-probe control)
B4	1
B1	1
B2	1
B5	1
B6	1
B3	1
B7	1

These molecules were tested on HCoV-OC43 gRNA and sgRNA. Conditions: 24 hpi; type n_24_v; tested against no-probe control; FDR<10%.
Assay type: binding

Molecule	target (unweighted spectral count, OC43 Probe II capture)
B2	4

Same assay, conditions: 36 hpi; type n_36_v; tested against no-probe control; FDR<10%

Molecule	target (unweighted spectral count, OC43 Probe II capture)
B4	16
B1	9
B2	8
B5	6
B6	6
B7	6

Same assay, conditions: OC43 Probe II, 24 hpi (type n_24_v), infected cells; tested against no-probe control

Molecule	target (unweighted spectral count)
B4	8
B1	7
B5	6

Same assay, conditions: type n_48_v; 48 hpi; OC43 Probe II capture on infected cells

Molecule	target (unweighted spectral count, OC43 Probe II)
B4	16
B1	11
B2	10
B5	9
B6	5
B3	10

Same assay, conditions: type n_48_v; 48 hpi; no-probe control on infected cells

Molecule	background (unweighted spectral count, no-probe control)
B4	1
B1	1
B2	1
B5	1
B6	1
B3	1

Same assay, conditions: type s_36_m; HCoV-OC43-infected HCT-8 cells, 36 hpi, Probe II

Molecule	target (spectral count)
B4	16
B1	9
B2	8

Same assay, conditions: type s_36_m; uninfected-probe control, 36 hpi, Probe II

Molecule	background (spectral count)
B4	1
B1	1
B2	1
